The source of these data is article PMC12509757 (2025).

In the assay the target is BSA (Bos taurus (Bovine), UniProt P02769). Briefly: co-sedimentation (ultracentrifugation pelleting, immunoblot), BSA in place of microtubules as negative control. In general terms: A western blot detects proteins with antibodies after separation by electrophoresis.
Sequence of BSA (P02769 25-607): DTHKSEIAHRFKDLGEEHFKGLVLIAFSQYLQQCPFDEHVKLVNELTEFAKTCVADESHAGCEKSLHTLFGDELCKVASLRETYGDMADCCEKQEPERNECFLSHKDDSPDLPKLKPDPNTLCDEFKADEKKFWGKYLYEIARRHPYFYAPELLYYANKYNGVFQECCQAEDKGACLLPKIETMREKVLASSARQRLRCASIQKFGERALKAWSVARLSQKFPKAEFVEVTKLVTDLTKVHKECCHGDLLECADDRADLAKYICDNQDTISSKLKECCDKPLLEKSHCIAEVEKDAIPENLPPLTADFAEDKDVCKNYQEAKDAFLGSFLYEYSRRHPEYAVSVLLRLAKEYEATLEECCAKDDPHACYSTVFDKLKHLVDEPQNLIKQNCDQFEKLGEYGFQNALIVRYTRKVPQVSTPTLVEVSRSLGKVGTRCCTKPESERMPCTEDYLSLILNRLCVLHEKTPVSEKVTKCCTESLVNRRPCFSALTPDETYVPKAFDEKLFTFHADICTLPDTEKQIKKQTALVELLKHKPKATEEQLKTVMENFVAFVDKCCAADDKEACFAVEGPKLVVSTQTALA

B1: His GST BAR-PH (aa 1-388) of ARHGAP10, WT (protein)
chain: MGLQPLEFSDCYLDSPWFRERIRAHEAELERTNKFIKELIKDGKNLIAATKSLSVAQRKFAHSLRDFKFEFIGDAVTDDERCIDASLREFSNFLKNLEEQREIMALSVTETLIKPLEKFRKEQLGAVKEEKKKFDKETEKNYSLIDKHLNLSAKKKDSHLQEADIQVEQNRQHFYELSLEYVCKLQEIQERKKFEFVEPMLSFFQGMFTFYHQGHELAKDFNHYKMELQINIQNTRNRFEGTRSEVEELMNKIRQNPKDHKRASQFTAEGYLYVQEKRPAPFGSSWVKHYCMYRKAAKKFNMIPFEHRSGGKLGDGEVFFLKECTKRHTDSIDRRFCFDIEAADRPGVSLTMQAFSEEERKQWLEALGGKEALSHSFNTAIIPRPEGN
For the molecule B1, the binding result is reported as “no binding”.
